Measured values reported in PMC6369299, “A heterodimeric glutathione S-transferase that stereospecifically breaks lignin's β(R)-aryl ether bond reveals the diversity of bacterial β-etherases” (The Journal of Biological Chemistry, 2018).

Key:
NaLigF1 = molecular target: T1, NaLigF1 (Novosphingobium aromaticivorans, UniProt Q2G6J3); assay: HPLC end-point conversion of MPHPV; assay type: biochemical; details: β(S)-MPHPV left after BaeA+BaeB reaction on racemic MPHPV; GSH, 25 mM Tris-HCl pH 8.0, 25 mM NaCl, 30 °C
T1 construct: gene Saro_2091; recombinant, purified as described previously
T1 sequence (Q2G6J3 11-257 limits assumed): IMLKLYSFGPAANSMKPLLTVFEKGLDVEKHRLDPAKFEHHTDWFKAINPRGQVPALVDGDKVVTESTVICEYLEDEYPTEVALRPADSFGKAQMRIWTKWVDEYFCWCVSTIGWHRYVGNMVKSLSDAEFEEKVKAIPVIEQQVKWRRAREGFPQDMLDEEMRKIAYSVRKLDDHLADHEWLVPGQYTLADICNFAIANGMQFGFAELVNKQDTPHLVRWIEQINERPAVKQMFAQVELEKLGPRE

NaLigE = molecular target: T2, NaLigE (Novosphingobium aromaticivorans, UniProt Q2G5N2); assay: initial rate of GS-HPV formation by HPLC, Michaelis-Menten fit; assay type: biochemical; details: racemic MPHPV added, concentration counted as β(R); 5 mM GSH, 25 mM Tris-HCl pH 8.0, 25 mM NaCl, 25 °C; per subunit of the homodimer
T2 construct: gene Saro_2405; recombinant from E. coli; N-terminal His8 tag cut by TEV (SAIAG- left); homodimer
T2 sequence (Q2G5N2 1-279): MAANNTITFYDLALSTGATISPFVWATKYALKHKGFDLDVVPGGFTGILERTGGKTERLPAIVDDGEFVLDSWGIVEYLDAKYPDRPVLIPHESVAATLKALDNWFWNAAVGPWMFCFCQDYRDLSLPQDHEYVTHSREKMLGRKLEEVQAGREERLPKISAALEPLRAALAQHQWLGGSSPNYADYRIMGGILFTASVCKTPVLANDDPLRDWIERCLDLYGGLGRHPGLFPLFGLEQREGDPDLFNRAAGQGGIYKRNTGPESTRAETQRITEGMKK
From the text: initial rate of GS-HPV formation by HPLC, Michaelis-Menten fit on NaLigE

[1] = substrate: COc1cc(C(=O)[C@@H](CO)Oc2ccccc2OC)ccc1O; assay: as above; assay type: biochemical, Novosphingobium aromaticivorans; details: racemic MPHPV added, concentration counted as β(R), 5 mM GSH, 25 mM Tris-HCl pH 8.0, 25 mM NaCl, 25 °C, per heterodimer
From the text: initial rate of GS-HPV formation by HPLC, Michaelis-Menten fit on BaeAB

Row | Km (NaLigE) | Molecule | HPLC end-point conversion of MPHPV (NaLigF1) | Km [1] | kcat [1] | kcat/Km [1]
1 | – | COc1cc(C(=O)[C@H](CO)Oc2ccccc2OC)ccc1O [β(S)-MPHPV] | upon the addition of NaLigF1, the MPHPV was completely converted into GS-HPV and guaiacol | – | – | –
2 | 7 ± 1 µM | COc1cc(C(=O)[C@@H](CO)Oc2ccccc2OC)ccc1O [β(R)-MPHPV] | – | – | – | –
3 | – | BaeAB (Novosphingobium aromaticivorans DSM 12444) (protein, co-expressed in E. coli B834, His8 tag on BaeB cut by TEV leaving SAIAG- linked to Ser2 (Met1 not coded); heterodimer, ~59 kDa by GPC; with Glutathione S-transferase-like protein (beta-etherase subunit BaeB)) MDEVSLYHWEPNANSGKPMLALMEKGVPFSSHYIDMLQFDQHKPEYLAINPQGTIPAMTHNGQVLTESTAIMEYVNDRFDGPDLMPADAQDRWRVRWWMKFMDQWLGPSFSMIGWSVFVGPMVRQRDPAELAAAIDRIPLPERRTAWRKAINGDFSESEMAESRRRVGLGIAKLEEELGKRPYVGSNQYSLADINIFNSTYSLPISQPDLAGKDRTPNIMRWLKRVYTREAVKKTWAMGKTDLAHRYGLIMAEIEG | – | 20 ± 3 µM | 2.9 ± 0.3 s⁻¹ | 150000 ± 30000 M⁻¹ s⁻¹
4 | – | BaeAB (Novosphingobium aromaticivorans DSM 12444; S15A) (protein, co-expressed in E. coli B834, His8 tag on BaeB cut by TEV leaving SAIAG- linked to Ser2 (Met1 not coded); heterodimer, ~59 kDa by GPC; with Glutathione S-transferase-like protein (beta-etherase subunit BaeB)) MDEVSLYHWEPNANAGKPMLALMEKGVPFSSHYIDMLQFDQHKPEYLAINPQGTIPAMTHNGQVLTESTAIMEYVNDRFDGPDLMPADAQDRWRVRWWMKFMDQWLGPSFSMIGWSVFVGPMVRQRDPAELAAAIDRIPLPERRTAWRKAINGDFSESEMAESRRRVGLGIAKLEEELGKRPYVGSNQYSLADINIFNSTYSLPISQPDLAGKDRTPNIMRWLKRVYTREAVKKTWAMGKTDLAHRYGLIMAEIEG | – | 100 ± 20 µM | 2.4 ± 0.3 s⁻¹ | 23000 ± 6000 M⁻¹ s⁻¹
5 | – | BaeAB (Novosphingobium aromaticivorans DSM 12444; N14A) (protein, co-expressed in E. coli B834, His8 tag on BaeB cut by TEV leaving SAIAG- linked to Ser2 (Met1 not coded); heterodimer, ~59 kDa by GPC; with Glutathione S-transferase-like protein (beta-etherase subunit BaeB)) MDEVSLYHWEPNAASGKPMLALMEKGVPFSSHYIDMLQFDQHKPEYLAINPQGTIPAMTHNGQVLTESTAIMEYVNDRFDGPDLMPADAQDRWRVRWWMKFMDQWLGPSFSMIGWSVFVGPMVRQRDPAELAAAIDRIPLPERRTAWRKAINGDFSESEMAESRRRVGLGIAKLEEELGKRPYVGSNQYSLADINIFNSTYSLPISQPDLAGKDRTPNIMRWLKRVYTREAVKKTWAMGKTDLAHRYGLIMAEIEG | – | 250 ± 60 µM | 0.14 ± 0.02 s⁻¹ | 500 ± 200 M⁻¹ s⁻¹
